Measurements reported in patent US20210015858A1 (I MAB BIOPHARMA US, published 2021).
Each block holds one binder with its values, some of them ahead of it.

Tests used:
His-tagged cyno-TIGIT = biological target: T1, His-tagged cyno-TIGIT (cyno, UniProt A0A7N9I9V4 89-209); test: ELISA
T1 construct: also called cyno TIGIT protein; not shown: His tag

[1] = biological target: T2, recombinant His-tagged human TIGIT-ECD protein (human, UniProt Q495A1 22-141); test: SPR (Biacore T200), antibody captured, His-tagged TIGIT-ECD injected
T2 construct: extracellular domain; The ELISA text only says His-tagged human TIGIT; also called His-tagged TIGIT; human TIGIT protein; not shown: His tag
T2 sequence (looked up): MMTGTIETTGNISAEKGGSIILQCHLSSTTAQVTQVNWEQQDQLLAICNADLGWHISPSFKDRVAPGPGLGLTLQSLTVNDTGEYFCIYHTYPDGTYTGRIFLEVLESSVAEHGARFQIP
Protocol: The binding of the antibodies to recombinant His-tagged human TIGIT-ECD protein was examined by Biacore T200 using a capture method. The anti-TIGIT antibodies were captured using anti-human Fc antibody or Protein A which were coated on chip. The serial concentrations of his-tagged human TIGIT-ECD protein (0-8 nM) were injected over capture antibodies at the flow rate of 30 μl/min. The dissociation phases were 600 s or 1200 s.

[2] = biological target: T2, recombinant His-tagged human TIGIT-ECD …; test: SPR affinity ranking (Biacore T200)
[3] = biological target: T2, recombinant His-tagged human TIGIT-ECD …; test: SPR affinity ranking (Biacore 8K or T200)
[4] = biological target: T2, recombinant His-tagged human TIGIT-ECD …; test: SPR (Biacore T200), antibody captured, His-tagged TIGIT-ECD injected; remark: listed apart in the source
Protocol: The anti-TIGIT antibodies were captured using anti-human Fc antibody or Protein A which were coated on the chip. Serial concentrations of His-tagged human TIGIT-ECD protein (0-8 nM) were injected over capture antibodies at the flow rate of 30 μl/min. The dissociation phases were 600 s or 1200 s.

[5] = biological target: T3, human TIGIT expressed on cell surface (human, UniProt Q495A1 22-244); test: cell-based or functional assay
T3 sequence (looked up): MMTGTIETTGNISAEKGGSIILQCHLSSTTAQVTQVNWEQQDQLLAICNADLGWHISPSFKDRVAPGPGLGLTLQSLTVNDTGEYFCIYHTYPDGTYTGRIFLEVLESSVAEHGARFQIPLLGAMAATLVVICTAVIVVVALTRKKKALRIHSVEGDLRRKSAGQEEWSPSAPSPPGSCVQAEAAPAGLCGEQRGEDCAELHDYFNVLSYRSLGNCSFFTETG

T1 sequence (A0A7N9I9V4 entry or part of it): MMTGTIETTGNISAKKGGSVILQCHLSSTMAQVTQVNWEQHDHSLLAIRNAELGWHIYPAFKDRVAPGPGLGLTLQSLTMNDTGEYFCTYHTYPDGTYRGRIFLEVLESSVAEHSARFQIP

B1: 116H8 (antibody, human IgG1, V domains shown)
VH: EFQLQQSGPELVKPGASVKISCRASGYSFTAYSMNWVQQTNGKSLEWIGVINPKFGTINYNQKFKGKATLTVDQSSSAAYIQLNSLTSEDSAVYFCARNGNFAWYFDVWGTGTTVTVSS
VL: DIQMTQSPASLSASVGETVTITCRASENIFSYLAWYQQKQGKSPQLLVYNAKTLPEGVPSRFSGSGSGTQFSLKINSLQSEDFGSYYCQHHYGVPWTFGGGTKLEIK
notes: Mouse hybridoma clone
binding result (His-tagged cyno-TIGIT): no binding

B3: 131A12 (antibody, human IgG1, V domains shown)
VH: EFQLQQSGPELVKPGASVKISCRASGYSFTAYSMNWVQQTNGKSLEWIGVINPKFGTTNYNQKFRDKATLTVDHSSSAAYMQLNSLTSEDSAVYFCARNGNFAWYFDVWGTGTTVTVSS
VL: DIQMTQSPASLSASVGETVTITCRASENIFSYLAWYQQKQGKSPQLLAYNAETLAEGVPSRFSGSGSGTQFSLKISSLQSEDFGSYYCQHHFGVPWTFGGGTNLEIK
notes: Mouse hybridoma clone
binding result (His-tagged cyno-TIGIT): no binding

B4: 101E1HM-1 (antibody, V domains shown)
VH: QVQLQESGPGLVKPSQTLSLTCTVSGYSITDDYAWNWIRQPPGKGLEWMGYISYSGHTKYNPSLKSRVTISRDTSKNQFSLKLSSVTAADTAVYYCARKYYGGWFPRWGQGTLVTVSS
VL: DIQMTQSPSSLSASVGDRVTITCKASQDVFTAVAWYQQKPGKAPKLLIYSASYRPTGVPSRFSGSGSGTDFTFTISSLQPEDFATYYCQQSYSTPWTFGQGTRLEIK
Kd [2]: 2.15 nM
koff [2]: 0.00107 s⁻¹
kon [2]: 496000 M⁻¹ s⁻¹

B6: 101E1HM-3 (antibody, V domains shown)
VH: QVQLQESGPGLVKPSQTLSLTCTVSGYSITDDYAWNWIRQPPGKGLEWMGYISYSGDTKYNPSLKSRVTISRDTSKNQFSLKLSSVTAADTAVYYCARKYYGGWFPVWGQGTLVTVSS
VL: DIQMTQSPSSLSASVGDRVTITCKASQDVFTAVAWYQQKPGKAPKLLIYSASNRNTGVPSRFSGSGSGTDFTFTISSLQPEDFATYYCQQQYSTPWTFGQGTRLEIK
Kd [2]: 0.554 nM
koff [2]: 0.000717 s⁻¹
kon [2]: 1.29e+06 M⁻¹ s⁻¹

B7: 101E1HM-2 (antibody, V domains shown)
VH: QVQLQESGPGLVKPSQTLSLTCTVSGYSITDDYAWNWIRQPPGKGLEWMGYISYSGNTMYNPSLKSRVTISRDTSKNQFSLKLSSVTAADTAVYYCARKYYGGWFPIWGQGTLVTVSS
VL: DIQMTQSPSSLSASVGDRVTITCKASQDVFTAVAWYQQKPGKAPKLLIYSASYRHTGVPSRFSGSGSGTDFTFTISSLQPEDFATYYCQQSYSTPWTFGQGTRLEIK
Kd [2]: 1.48 nM
koff [2]: 0.00191 s⁻¹
kon [2]: 1.29e+06 M⁻¹ s⁻¹

B8: 101E1HM-4 (antibody, V domains shown)
VH: QVQLQESGPGLVKPSQTLSLTCTVSGYSITDDYAWNWIRQPPGKGLEWMGYISYSGHTRYNPSLKSRVTISRDTSKNQFSLKLSSVTAADTAVYYCARKYYGSWFPDWGQGTLVTVSS
VL: DIQMTQSPSSLSASVGDRVTITCKASQDVFTAVAWYQQKPGKAPKLLIYSASYRMTGVPSRFSGSGSGTDFTFTISSLQPEDFATYYCQQSYSTPWTFGQGTRLEIK
Kd [2]: 3.08 nM
koff [2]: 0.00439 s⁻¹
kon [2]: 1.43e+06 M⁻¹ s⁻¹

B12: 350D10 (antibody, human IgG1, V domains shown)
VH: EVKLVESGGALVQPGGSLKLSCAASGFTFSDYYMYWVRQTPEKRLEWVASITKGGGSTYYPDTLKGRFTISRDNAKNTLYLQMSRLKSEDTDMYYCARQSSYDFVMDYWGQGTSVTVSS
VL: DIVMTQSHKFMSTSVGDRVTITCKASQDVDTAVAWYQQKPGQSPKLLIYWASARHTGVPDRFTGSGSGTDFTLTISNVQSEDLADYFCQQYSNYPLTFGVGTKLELK
notes: Mouse hybridoma clone; also called 350D10-chimeric
Kd [3]: 0.0716 nM
koff [3]: 0.000189 s⁻¹
kon [3]: 2.64e+06 M⁻¹ s⁻¹
Kd [4]: 0.0822 nM
koff [4]: 0.000154 s⁻¹
kon [4]: 1.87e+06 M⁻¹ s⁻¹
maximum ADCC activity (LDH release, NK92-CD16a effector cells on Jurkat-TIGIT target cells) [5]: 50%
Kd [1]: 0.0822 nM
koff [1]: 0.000154 s⁻¹
kon [1]: 1.87e+06 M⁻¹ s⁻¹

B13: 90D9 (antibody, V domains shown)
VH: EVQLQQSGPELVKPGASVKISCKTSGYTFTENTMHWVKQSHGKSLEWIGGINPNQGGNRNNQKFKGKATLTVDKSSSTAYMELRSLTSEDSAVYYCARSGLRDYAMDYWGQGTSVTVSS
VL: DIVMTQSHKFMSTSVGDRVSITCKASQHVSTAVVWYQQKPGQSPKLLIYSPSYRYTGVPDRFTGSGSGTDFTFTISSVQAEDLAVYYCQQHYSTPWTFGGGTKLEIK
notes: Mouse hybridoma clone; also called 90D9-chimeric
Kd [3]: 0.296 nM
koff [3]: 3.25e-05 s⁻¹
kon [3]: 110000 M⁻¹ s⁻¹
Kd [4]: 0.374 nM
koff [4]: 0.000167 s⁻¹
kon [4]: 446000 M⁻¹ s⁻¹
maximum ADCC activity (LDH release, NK92-CD16a effector cells on Jurkat-TIGIT target cells) [5]: 50%
Kd [1]: 0.252 nM
koff [1]: 0.000156 s⁻¹
kon [1]: 619000 M⁻¹ s⁻¹

B14: 101E1 (antibody, human IgG1, V domains shown)
VH: DVQLQESGPGLVKPSQSLSLTCTVTGYSITSDYAWNWIRQFPGNKLEWMGYISYSGNTRYNPSLKSRISITRDTSKNQFFLQFNSVTTEDTATYYCSRKYYGSWFPYWGQGTLVTVSA
VL: DIVMTQSHKFMSTSVGDRVSITCKASQDVFTAVAWYQQKPGQSPKLLIYSASYRYTGVPDRFTGSGSGTDFTFTISSVQAEDLAVYYCQQHYSTPWTFGGGTRLEIK
notes: Mouse hybridoma clone; also called 101E1-chimeric
apparent Kd (pooled screen) [3]: 0.487 nM
apparent koff (pooled screen) [3]: 0.00114 s⁻¹
apparent kon (pooled screen) [3]: 2.34e+06 M⁻¹ s⁻¹
apparent Kd (pooled screen) [4]: 0.362 nM
apparent koff (pooled screen) [4]: 0.00105 s⁻¹
apparent kon (pooled screen) [4]: 2.9e+06 M⁻¹ s⁻¹
maximum ADCC activity (LDH release, NK92-CD16a effector cells on Jurkat-TIGIT target cells) [5]: 50%
binding result (His-tagged cyno-TIGIT): no binding
apparent Kd (pooled screen) [1]: 0.362 nM
apparent koff (pooled screen) [1]: 0.00105 s⁻¹
apparent kon (pooled screen) [1]: 2.9e+06 M⁻¹ s⁻¹

The remaining lines, values ahead:

Kd [1]: 0.024 nM
koff [1]: 0.000107 s⁻¹
kon [1]: 4.45e+06 M⁻¹ s⁻¹
B2: 167F7 (antibody, human IgG1, V domains shown)
VH: EFQLQQSGPELVKPGASVKISCRASGYSFTAYSMNWVQQTNGKSLEWIGVINPKFGTINYNQKFKDKATLTVDHSSSAAYMQLNSLTSEDSAVYFCARNGNFAWYFDVWGTGTTVTVSS
VL: DIQMTQSPASLSASVGETVTITCRASESIFSYLAWYQQKQGKSPQLLAYNAETLAEGVPSRFSGSGSGTQFSLKINSLQSEDFGIYYCQHHFGVPWTFGGGTKLEIK
notes: Mouse hybridoma clone

Kd [2]: 1.29 nM
koff [2]: 0.00209 s⁻¹
kon [2]: 1.63e+06 M⁻¹ s⁻¹
B5: 101E1HM-5 (antibody, V domains shown)
VH: QVQLQESGPGLVKPSQTLSLTCTVSGYSITDDYAWNWIRQPPGKGLEWMGYISYSGITRYNPSLKSRVTISRDTSKNQFSLKLSSVTAADTAVYYCARKYYGGWFPQWGQGTLVTVSS
VL: DIQMTQSPSSLSASVGDRVTITCKASQDVFTAVAWYQQKPGKAPKLLIYSASYRDTGVPSRFSGSGSGTDFTFTISSLQPEDFATYYCQQSYSTPWTFGQGTRLEIK

Kd [1]: 0.242 nM
koff [1]: 0.000453 s⁻¹
kon [1]: 1.87e+06 M⁻¹ s⁻¹
B9: 222H4 (antibody, human IgG1, V domains shown)
VH: EVQLQQSGPELVKPGASVKISCKTSGYTFSDYTLHWVKQSHGKNLEWIGGFNPNNGGTNYNQKFKVKASLTIDKSSNTVYMELRSLSSEDSAVYYCARNWAFDYWGQGTTLTVSS
VL: DIVMTQSHKIMSTSLGDRVNITCKASQHVSTAVAWYQQRPGQSPRLLIYSASYRHTGVPDRFTGSGSGTDITFTISSVQTEDLAVYYCQQYYTTPWTFGGGTKLEIK
notes: Mouse hybridoma clone

binding result (His-tagged cyno-TIGIT): no binding
B10: 143B6 (antibody, human IgG1, V domains shown)
VH: EVQLVESGGGLVMPGGSLKLSCAASGFTFSGFVMSWVRQTPEKRLEWVATINDAGTYTYYSDNLKGRFTISRDNAKNNLYLQMSHLKSEDAGMYYCARDGGLRAWFPYWGPGTLVTVSA
VL: DIQLTQSPASLSASVGETVTITCRASENIYSYLAWYQLKQGKSPQLLVFNTKTLAEGVPSRFSGSGSGTQFSLRIDSLQLEDFGSFYCQHHIGSPRTFGGGTTLEIR
notes: Mouse hybridoma clone

binding result (His-tagged cyno-TIGIT): no binding
B11: 221F11 (antibody, human IgG1, V domains shown)
VH: EIQLQQTGPELVKPGASVNISCKASGYSFTDYIMIWVKQSHGKSLEWIGNIHPYFGNSHYNLKFKGKATLTVDKSSTTAYMQLNSLTSEDSAVYYCARRGITSAHFDYWGQGTTLTVSS
VL: DIVLTQSPASLAVSLGQRATISCRASKSVSTSGYSYMHWYQQKPGQPPKLLIYRASNLESGVPARFSGSGSGTDFTLNIHPVEEEDAATYYCQHSGDLPWTFGGGTKLEIK
notes: Mouse hybridoma clone
